Experimental data: article PMC10296842, “How Do Cancer-Related Mutations Affect the Oligomerisation State of the p53 Tetramerisation Domain?” (Current Issues in Molecular Biology, 2023)

Target: the molecule itself
Assay: native MS; peptide alone in 200 mM ammonium acetate, pH 7; high monomer concentration (80 uM WT and T329I, 100 uM R337H), cone voltage 40 V (raised to 80-120 V to dissociate the oligomers); positive ESI, TOF and ion mobility-TOF; WT and R337H not isotope-labelled

B1: 37TD-WT (wild-type p53 tetramerisation domain peptide, residues 320-356) (peptide, UniProt P04637 320-356, looked up)
chain: Ac-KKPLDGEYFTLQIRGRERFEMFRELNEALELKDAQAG-NH2
modifications: also: 13C-methyl Met340 in the isotope-labelled form
notes: p53 tetramerisation domain, residues 320-356 (37 amino acids); Made twice: with normal methionine (used in native MS and CD) and with 13C-methyl methionine (used in NMR); also called WT TD; p53TD; source: synthetic peptide (manual Fmoc/tBu SPPS), purified by semi-preparative HPLC
- stoichiometry N: 4
